Data from publication PMC10647171.

What was measured:
Experiment in all cases: potentiometry
[1] = biological target: Cys30 (UniProt position 772, STTGDCH----); conditions: 298 K; 0.1 M NaClO4; none (4 mM HClO4, 0.1 M NaClO4); Zn(II)-bound mononuclear 1:1 complex
[2] = biological target: His31 (UniProt position 773, TTGDCH-----); conditions: 298 K, 0.1 M NaClO4, none (4 mM HClO4, 0.1 M NaClO4)
[3] = biological target: Asp29 (UniProt position 771, ASTTGDCH---); conditions: 298 K; 0.1 M NaClO4; none (4 mM HClO4, 0.1 M NaClO4); free peptide, no metal, thiols reduced (argon atmosphere)
[4] = biological target: Cterm31 (UniProt position 773, TTGDCH-----); conditions: 298 K; 0.1 M NaClO4; none (4 mM HClO4, 0.1 M NaClO4); free peptide, no metal, thiols reduced (argon atmosphere)
[5] = biological target: His31 (position 31, TTGDCH-----); conditions: 298 K, 0.1 M NaClO4, none (4 mM HClO4, 0.1 M NaClO4)
[6] = biological target: Cys30 (position 30, STTGDCH----); conditions: 298 K; 0.1 M NaClO4; none (4 mM HClO4, 0.1 M NaClO4); Zn(II)-bound mononuclear 1:1 complex
Glu10 (position 10, …) = conditions: 298 K, 0.1 M NaClO4, none (4 mM HClO4, 0.1 M NaClO4)
[7] = biological target: Cterm31 (position 31, TTGDCH-----); conditions: 298 K; 0.1 M NaClO4; none (4 mM HClO4, 0.1 M NaClO4); free peptide, no metal, thiols reduced (argon atmosphere)
[8] = Fe(II)-bound mononuclear 1:1 complex, anaerobic
[9] = Mn(II)-bound mononuclear 1:1 complex
[10] = Zn(II)-bound mononuclear 1:1 complex
[11] = free peptide, no metal, thiols reduced (argon atmosphere)

With CCAASTTGDCH [FeoB C-terminal peptide P1 (Ac-CCAASTTGDCH, FeoB 763-773) (Escherichia coli K12)] the pKa [1] was 7.27, the pKa [2, 8] was 4.68 and the pKa [2, 9] was 6.46. The pKa [2, 10] was 5.91, the pKa [2, 11] was 6.96 and the pKa [3] was 4.19. It also gave a pKa [4] of 3.37.

In the case of RRARSRVDIELLATRKSVSSCCAASTTGDCH [FeoB C-terminal peptide P2 (Ac-RRARSRVDIELLATRKSVSSCCAASTTGDCH, FeoB 743-773) (Escherichia coli K12)], the pKa [5, 8] is reported as 4.90, the pKa [5, 9] is reported as 5.20 and the pKa [5, 10] is reported as 5.74. It also gave a pKa [5, 11] of 6.73, a pKa [6] of 7.75 and a pKa (Glu10 (position 10, …); [8]) of 4.13. It also gave a pKa (Glu10 (position 10, …); [9]) of 3.64, a pKa (Glu10 (position 10, …); [11]) of 4.38 and a pKa [7] of 2.15.
